Test results taken from US8748104.
Like-named read-outs stand apart in the source and are kept apart here.

What was measured:
skeletal Troponin I [1] = biological target: skeletal Troponin I (UniProt P48788); settings: Luminex bead fluorescence assay, streptavidin-phycoerythrin detection; room temperature 1 h, PBS washes
skeletal Troponin I [2] = biological target: skeletal Troponin I (UniProt P48788); settings: Luminex bead fluorescence assay, streptavidin-phycoerythrin detection; room temperature 1 h, PBS washes; remark: listed apart in the source

Chain of UniProt P48788 (P48788 2-182): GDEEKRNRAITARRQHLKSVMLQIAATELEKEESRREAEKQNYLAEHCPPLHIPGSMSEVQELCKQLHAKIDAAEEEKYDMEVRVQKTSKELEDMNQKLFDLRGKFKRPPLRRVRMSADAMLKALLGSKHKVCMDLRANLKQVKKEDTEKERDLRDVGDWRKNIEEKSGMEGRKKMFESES

| Sequence | Kd (skeletal Troponin I [1]) [nM] | Kd (skeletal Troponin I [2]) [nM] |
| --- | --- | --- |
| TTAGGGGTGGTGTGGTTGGCAATTC [SEQ ID NO: 2 aptamer] | 5 |  |
| GGGATGGGGTGGGTGGCCAGCGATT [SEQ ID NO: 1 aptamer] |  | 37.7 |
